The target in the assay is Presenilin 1 (mouse (endogenous in primary neurons of …, UniProt P49769 1-467)). As to the kind of experiment: co-IP.

These results are taken from publication PMC7325863 (Neurobiology of aging, 2019).

B1: Synaptotagmin 1 (natural protein)
chain: MVSASRPEALAAPVTTVATLVPHNATEPASPGEGKEDAFSKLKQKFMNELHKIPLPPWALIAIAIVAVLLVVTCCFCVCKKCLFKKKNKKKGKEKGGKNAINMKDVKDLGKTMKDQALKDDDAETGLTDGEEKEEPKEEEKLGKLQYSLDYDFQNNQLLVGIIQAAELPALDMGGTSDPYVKVFLLPDKKKKFETKVHRKTLNPVFNEQFTFKVPYSELGGKTLVMAVYDFDRFSKHDIIGEFKVPMNTVDFGHVTEEWRDLQSAEKEEQEKLGDICFSLRYVPTAGKLTVVILEAKNLKKMDVGGLSDPYVKIHLMQNGKRLKKKKTTIKKNTLNPYYNESFSFEVPFEQIQKVQVVVTVLDYDKIGKNDAIGKVFVGYNSTGAELRHWSDMLANPRRPIAQWHTLQVEEEVDAMLAVKK
With B1, the “fold change of co-precipitated Syt-1/PS1, old against young neurons (-KCl)” value came to 1.79 fold.
